Results reported in patent publication US20220153875A1 (Chugai, published 2022).

How the values were obtained:
[1] = molecular target: T1, human IL-6 receptor (hIL-6R) (human, UniProt P08887 20-357, limits assumed); assay: SPR (Biacore T200), antibody captured on ProA/G on CM4 chip, hIL-6R as analyte, single cycle kinetics, 25 C, in the presence of 100 µM MTA; 100 µM MTA in the antigen buffer
T1 sequence: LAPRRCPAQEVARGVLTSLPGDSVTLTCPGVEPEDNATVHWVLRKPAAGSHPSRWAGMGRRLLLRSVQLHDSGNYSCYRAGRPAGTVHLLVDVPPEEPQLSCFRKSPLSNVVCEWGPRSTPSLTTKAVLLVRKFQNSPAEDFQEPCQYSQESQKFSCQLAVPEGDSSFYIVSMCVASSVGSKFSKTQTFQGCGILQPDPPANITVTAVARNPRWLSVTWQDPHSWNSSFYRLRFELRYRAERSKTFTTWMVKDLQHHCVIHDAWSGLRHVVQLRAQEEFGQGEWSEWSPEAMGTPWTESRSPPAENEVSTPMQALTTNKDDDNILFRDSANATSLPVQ
Description: (§1) The effects of MTA and adenosine on the antigen-antibody reaction between the antibodies purified and produced in Example (4-5) and the target antigens were evaluated using Biacore T200 (GE Healthcare). 20 mM ACES, 150 mM NaCl, 0.05% (w/v) Tween20, pH 7.4 was used as the running buffer, and the measurement was performed at 25° C. Changes in the amount of binding between antigens and antibodies were observed by immobilizing ProA/G on the sensor chip CM4 by amine coupling, immobilizing the antibody on it, and then interacting with various antigens as analytes. The running buffer and a buffer prepared by adding either MTA or adenosine to the running buffer at a final concentration of 100 μM were used to dilute the antigens. In addition, the antigens were prepared in concentration series of several steps, and the dissociation constant KD of each clone was calculated by single cycle kinetics analysis from the sensorgram for each antigen concentration. Biacore T200 Evaluation Software (GE Healthcare) was used to calculate the parameters.

human IL-6 (hIL-6) = human IL-6 (hIL-6) (human); assay: SPR (Biacore T200), antibody captured on ProA/G on CM4 chip, hIL-6 as analyte, single cycle kinetics, 25 C, in the presence of 100 µM MTA; 100 µM MTA in the antigen buffer
Chain of human IL-6 (hIL-6) (human) (P05231 30-212): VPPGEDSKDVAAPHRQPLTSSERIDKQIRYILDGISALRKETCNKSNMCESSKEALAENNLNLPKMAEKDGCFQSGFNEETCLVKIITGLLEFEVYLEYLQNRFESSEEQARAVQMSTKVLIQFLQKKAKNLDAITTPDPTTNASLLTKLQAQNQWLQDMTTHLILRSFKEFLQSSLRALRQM
Description: as §1

human IgA (hIgA) = molecular target: T2, human IgA (hIgA) (human); assay: SPR (Biacore T200), antibody captured on ProA/G on CM4 chip, hIgA as analyte, single cycle kinetics, 25 C, in the presence of 100 µM MTA; 100 µM MTA in the antigen buffer
T2 chain: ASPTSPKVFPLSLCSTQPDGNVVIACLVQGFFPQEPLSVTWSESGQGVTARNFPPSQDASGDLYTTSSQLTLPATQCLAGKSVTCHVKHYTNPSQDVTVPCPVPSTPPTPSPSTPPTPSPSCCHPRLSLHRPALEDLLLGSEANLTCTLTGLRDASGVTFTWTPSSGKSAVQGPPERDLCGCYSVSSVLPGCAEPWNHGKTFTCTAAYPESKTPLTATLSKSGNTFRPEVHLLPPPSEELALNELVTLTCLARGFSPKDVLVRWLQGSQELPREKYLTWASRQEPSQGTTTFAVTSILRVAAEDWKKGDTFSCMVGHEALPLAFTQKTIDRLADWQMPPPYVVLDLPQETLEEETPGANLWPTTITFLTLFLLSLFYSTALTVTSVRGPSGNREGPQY

B1: 6RS2T007H-F760mnN17/6RS2T007L-KT0 (antibody, human IgG1, kappa, N297A, V domains shown)
VH: QVQLVQSGAEVKKPGASVKVSCKVSNIVLMQHTYGWVRQPPGKGLEWIGIIGGDGHAWYPRWVKGRFTISKDNSKNQVVLTMTNMDPVDTATYYCARGGKDGFTNAWDPWGQGTLVTVSS
VL: DIQLTQSPSSLSASVGDRVTITCQSSQSVFNNNGLSWYQQKPGQPPKLLIYDASTLASGVPSRFSGSGSGTDFTLTINSLEAEDAATYYCHGSQATQIWWDNAFGGGTEVVVKR
notes: From the MTA-concentrated S02 library (humanized SMB0002 template); also called MTA-dependent anti-hIL-6R antibody
Kd [1]: 1010 nM

B2: 6LS2T001H-F760mnN17/6LS2T001L-KT0 (antibody, human IgG1, kappa, N297A, V domains shown)
VH: QVQLVQSGAEVKKPGASVKVSCKVSDIDAMQYTYGWVRQPPGKGLEWIGIIGEGGEVWYPYWVKGRFTISKDNSKNQVVLTMTNMDPVDTATYYCARGYHEGFVNAWDPWGQGTLVTVSS
VL: DIKLTQSPSSLSASVGDRVTITCQSSQSVLWNNYLSWYQQKPGQPPKLLIYDASTLASGVPSRFSGSGSGTDFTLTINSLEAEDAATYYCHGSQFEQWVFDNAFGGGTEVVVKR
notes: From the MTA-concentrated S02 library; Target antigen is hIL-6
Kd (human IL-6 (hIL-6)): 126 nM

B3: IAS2T001H-F760mnN17/IAS2T001L-KT0 (antibody, human IgG1, kappa, N297A, V domains shown)
VH: QVQLVQSGAEVKKPGASVKVSCKVSDIQDEQYAFGWVRQPPGKGLEWIGIIGATGHVWYPQWVKGRFTISKDNSKNQVVLTMTNMDPVDTATYYCARGHKQHFTNAFDPWGQGTLVTVSS
VL: DIQLTQSPSSLSASVGDRVTITCQSSQSVYKNNYLSWYQQKPGQPPKLLIYDASTLASGVPSRFSGSGSGTDFTLTINSLEAEDAATYYCHGAYLYLGVDNAFGGGTEVVVKR
notes: From the MTA-concentrated S02 library; Target antigen is hIgA
Kd (human IgA (hIgA)): 689 nM
